Data published in US20090053241A1.

How the values were obtained:
h5α (human) = h5α (human) (UniProt P16234); assay: ELISA (OD450), panel 'PDGF-AA BINDING TO PDGFRβ/α CHIMERAS'; axis 'CO…ON (nM)', titrated species not stated
1β4α (PDGFRβ/α chimera) = assay: as above
[1] = target: β1-3 (shorter version of PDGFRβ, D1D2D3); assay: ELISA (OD450), panel 'PDGF-BB BINDING TO hPDGFRβ DELETIONS'; axis 'CO…ON (nM)', titrated species not stated

h5α (human), sequence (P16234 24-524 limits assumed): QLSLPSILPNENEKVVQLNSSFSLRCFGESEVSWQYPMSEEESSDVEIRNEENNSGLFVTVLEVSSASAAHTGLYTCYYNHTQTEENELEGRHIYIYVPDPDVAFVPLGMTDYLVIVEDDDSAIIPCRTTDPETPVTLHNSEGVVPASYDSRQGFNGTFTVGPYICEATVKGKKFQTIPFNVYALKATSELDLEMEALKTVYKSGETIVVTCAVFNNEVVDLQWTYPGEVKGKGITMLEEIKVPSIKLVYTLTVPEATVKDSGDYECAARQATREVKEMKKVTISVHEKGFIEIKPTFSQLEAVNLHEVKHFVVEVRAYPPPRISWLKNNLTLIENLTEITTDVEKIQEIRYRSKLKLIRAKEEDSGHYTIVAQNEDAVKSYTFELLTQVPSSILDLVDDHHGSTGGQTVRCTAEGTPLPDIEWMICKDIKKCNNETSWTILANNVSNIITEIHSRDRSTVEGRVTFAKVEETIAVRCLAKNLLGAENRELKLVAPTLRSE
PDGF-BB (ligand), sequence (P01127 82-190): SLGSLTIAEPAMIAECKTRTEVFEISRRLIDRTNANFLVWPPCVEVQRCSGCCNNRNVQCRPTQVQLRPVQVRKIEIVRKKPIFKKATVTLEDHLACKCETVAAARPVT
1β4α (PDGFRβ/α chimera), sequence (P16234 other isoform, or with tags, fused parts or gaps mutant): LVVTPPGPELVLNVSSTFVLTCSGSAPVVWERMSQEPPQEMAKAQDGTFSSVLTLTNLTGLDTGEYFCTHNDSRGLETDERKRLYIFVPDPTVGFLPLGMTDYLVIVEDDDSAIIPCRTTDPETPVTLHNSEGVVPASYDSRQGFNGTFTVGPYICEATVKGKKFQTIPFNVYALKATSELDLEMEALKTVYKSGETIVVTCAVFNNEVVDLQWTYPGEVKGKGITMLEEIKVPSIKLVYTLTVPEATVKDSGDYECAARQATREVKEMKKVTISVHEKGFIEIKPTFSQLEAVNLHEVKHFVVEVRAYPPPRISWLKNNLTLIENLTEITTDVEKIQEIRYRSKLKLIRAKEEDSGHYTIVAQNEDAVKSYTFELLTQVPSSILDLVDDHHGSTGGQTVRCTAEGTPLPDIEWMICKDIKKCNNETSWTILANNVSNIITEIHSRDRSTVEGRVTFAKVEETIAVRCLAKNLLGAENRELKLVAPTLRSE

Row | Substance | EC50 (read off the curve) (h5α (human)) | EC50 (read off the curve) (1β4α (PDGFRβ/α chimera)) | EC50 (read off the curve) [1]
1 | PDGF-AA (ligand) | 0.02 nM | 0.05 nM | 
2 | PDGF-BB (ligand) |  |  | 0.06 nM
